Experimental data taken from US10005838B2, “Milk fat globule epidermal growth factor 8 regulates fatty acid uptake” (REGENTS OF THE UNIVERSITY OF CALIFORNIA, priority 2013, dated 2018).

Tests used:
CD36 = test: Plasma membrane CD36 expression in primary cells; type: cell-based, mouse; conditions: primary Mfge8−/− adipocytes, hepatocytes, and enterocytes; to WT levels
Description: (§1) Following tissue preparation and SDS-PAGE, membranes were incubated with a polyclonal antibody against Akt (Cell Signaling Technology), or Rictor (Cell Signaling); Anti-PGC1 alpha antibody (abcam); a monoclonal antibody against Phospho-Akt Ser473 (Cell Signaling), Phospho-Rictor Thr1135 (Cell Signaling), GAPDH (Cell Signaling), or Mfge8 (R&D Systems). For evaluation of total AKT and total Rictor, membranes that been blotted for phospho-AKT and phospho-Rictor were stripped and reprobed. Plasma membrane and post-plasma membrane fractions were isolated as previously described (Nishiumi, S. & Ashida, H., Biosci Biotechnol Biochem 71, 2343-2346 (2007)).

primary WT adipocytes = test: Glucose uptake assay (2-NBDG) in primary WT adipocytes; type: cell-based, mouse; conditions: insulin 1 μM
Description: Uptake of […] by primary cells and cell lines was assessed using the fluorescent D-glucose analog 2-[N-(7-nitrobenz-2-oxa-1,3-diazol-4-yl)amino]-2-deoxy-D-glucose (2-NBDG) (Invitrogen). 2-NBDG has been successfully used as an alternative to 2-deoxyglucose in the measurement of glucose uptake in multiple cell types. Cells were plated in triplicate in 96-well plates at a concentration of 25,000 cells per well in 100 μl of DMEM/10% FCS. Plates were centrifuged at 1000 rpm for 4 minutes and incubated at 37° C. for 4-5 hours. Cells were then serum deprived for 1 hour before treatment with recombinant proteins for 20 minutes followed by the addition of 2-NBDG (100 μM) for 10 min at 37° C. in a humidified atmosphere of 5% CO2. Reaction was stopped by adding a twofold volume of ice-cold PBS and the wells were washed again with ice-cold PBS three times. The fluorescent signal before (autofluorescence) and after adding 100 μM 2-NBDG was measured using fluorescent plate reader at 37° C. (Molecular Device using the 485 nmex and 520 nmemiss filter set). The net increase in fluorescence was normalized to the lowest signal (0 cells/well). […]

FATP1 = test: Plasma membrane FATP1 expression in primary adipocytes; type: cell-based, mouse; conditions: Mfge8−/− adipocytes
Description: as §1

primary hepatocytes = test: Fatty acid uptake in primary hepatocytes; type: cell-based, mouse
Description: Uptake of fatty acids by differentiated 3T3-L1 adipocytes or primary mouse adipocytes was assessed using a QBT Fatty Acid Uptake Kit (Molecular Devices). Cells were plated in triplicate in 96-well plates at a concentration of 25,000 cells per well in 100 μl of DMEM/10% FCS. Plates were centrifuged at 1000 rpm for 4 minutes and incubated at 37° Celsius for 4-5 hours. Cells were then serum deprived for 1 hour before treatment with recombinant proteins for 30 minutes followed by the addition of QBT Fatty Acid Uptake solution. […] Plates were incubated in a fluorescent plate reader at 37° Celsius and kinetic readings were acquired every 20 seconds for 30 minutes. Fluorescence values were plotted against time and data was expressed as relative fluorescent units per minutes×10^3.
The liver was pre-perfused through the portal vein with calcium-free buffer (0.5 mM EDTA, HBSS without Ca^2+ and Mg^2+) and next perfused with collagenase (3.5 U/ml Collegenase II (Worthington) 25 mM HEPES, HBSS with Ca^2+ and Mg^2+). […] Viability of isolated hepatocytes was determined by Trypan blue staining (around 85%) and cell density was approximately 60% confluence. […]

primary mouse adipocytes = test: Fluorescent fatty acid uptake assay in primary mouse adipocytes; type: cell-based
Description: Uptake of fatty acids by differentiated 3T3-L1 adipocytes or primary mouse adipocytes was assessed using a QBT Fatty Acid Uptake Kit (Molecular Devices). Cells were plated in triplicate in 96-well plates at a concentration of 25,000 cells per well in 100 μl of DMEM/10% FCS. Plates were centrifuged at 1000 rpm for 4 minutes and incubated at 37° Celsius for 4-5 hours. Cells were then serum deprived for 1 hour before treatment with recombinant proteins for 30 minutes followed by the addition of QBT Fatty Acid Uptake solution. In experiments using function-blocking antibodies, antibodies against mouse integrins αv (clone RMV-7) (Takahashi, K. et al., J Immunol 145, 4371-4379 (1990)) β3 (clone 2C9.G2; BD Biosciences) (Ashkar, S. et al., Science 287, 860-864 (2000)), β5 (clone ALULA) (Su, G. et al., American journal of respiratory cell and molecular biology 36, 377-386 (2007)), 131 (clone HA2/5; BD Biosciences, anti-rat with cross-reactivity with mouse (Zovein, A. C. et al., Developmental cell 18, 39-51 (2010)), CD36 (clone MF3; Abcam) (Helming, L. et al., Journal of cell science 122, 453-459 (2009)), human integrins αv (clone L230) (Thomas, G. J. et al., British journal of cancer 87, 859-867 (2002)), β3 (clone Axum-2) (Su, G. et al., Am J Respir Crit Care Med 185, 58-66 (2012)), β5 (clone ALULA), β1 (clone P5D2), cycloRGD and cycloRAD (BACHEM) were added to cells after serum deprivation and cells were incubated for 20 minutes at 4° Celsius prior to addition of recombinant proteins. Plates were incubated in a fluorescent plate reader at 37° Celsius and kinetic readings were acquired every 20 seconds for 30 minutes. Fluorescence values were plotted against time and data was expressed as relative fluorescent units per minutes×10^3.
Primary mouse adipocytes were obtained from epididymal fat pads by collagenase digestion in Krebs-HEPES (KRBH) buffer followed by filtering through a 100 μm strainer which was then washed with an additional 7.5 mL KRBH buffer. Adipocytes were allowed to float to the top of the mixture for 5 minutes, and the solution under the adipocyte layer was removed with a syringe. The adipocytes were washed with 10 mL KRBH and again allowed to float to the surface, at which point the solution was again removed. This process was repeated for a total of 3 washes. After the last aspiration, adipocytes were resuspended in 0.5-1.0 mL and counted.
Primary mouse adipocyte progenitors from the vascular stromal fraction were isolated and cultured as reported previously (Tseng et al., 2008). In brief, subcutaneous white adipose tissue was removed, minced and digested with 1 mg/ml collagenase for 45 min at 37° C. in DMEM/F12 medium containing 1% BSA and antibiotics. Digested tissues were filtered through sterile 150 μm nylon mesh and centrifuged at 250 g for 5 min. […]

Rictor = test: Western blot, Rictor phosphorylation in HepG2 cells; type: cell-based, human
Description: as §1

AKT at serine 473 = test: Western blot, AKT phosphorylation in 3T3-L1 cells; type: cell-based, mouse
Description: as §1

B1: rMfge8: recombinant Milk Fat Globule Epidermal Growth Factor 8, an integrin ligand, expressed in High 5 cells (protein)
chain: ASGDFCDSSLCLNGGTCLTGQDNDIYCLCPEGFTGLVCNETERGPCSPNPCYNDAKCLVTLDTQRGDIFTEYICQCPVGYSGIHCETETNYYNLDGEYMFTTAVPNTAVPTPAPTPDLSNNLASRCSTQLGMEGGAIADSQISASSVYMGFMGLQRWGPELARLYRTGIVNAWTASNYDSKPWIQVNLLRKMRVSGVMTQGASRAGRAEYLKTFKVAYSLDGRKFEFIQDESGGDKEFLGNLDNNSLKVNMFNPTLEAQYIKLYPVSCHRGCTLRFELLGCELHGCSEPLGLKNNTIPDSQMSASSSYKTWNLRAFGWYPHLGRLDNQGKINAWTAQSNSAKEWLQVDLGTQRQVTGIITQGARDFGHIQYVASYKVAHSDDGVQWTVYEEQGSSKVFQGNLDNNSHKKNIFEKPFMARYVRVLPVSWHNRITLRLELLGC
membrane expression of CD36 (CD36): increased
effect of insulin on glucose uptake (primary WT adipocytes): significantly inhibited
membrane expression of FATP1 (FATP1): increased
fatty acid uptake in Mfge8−/− hepatocytes (primary hepatocytes): rescued
fatty acid uptake in CD36−/− adipocytes (primary mouse adipocytes; CD36−/− adipocytes): did not significantly increase
fatty acid uptake in FATP1−/− adipocytes (primary mouse adipocytes; FATP1−/− adipocytes): did not significantly increase
fatty acid uptake in Mfge8−/− adipocytes (primary mouse adipocytes; Mfge8−/− primary adipocytes and differentiated adipocyte progenitors): rescued
WT fatty acid uptake (primary mouse adipocytes; WT adipocytes): significantly increased
phosphorylation of Rictor (Rictor): induced
phosphorylation of AKT at serine 473 (AKT at serine 473): induced
